The subject of assay [1] is endogenously expressed APP isoforms in SH-SY5Y cells. The experiment in a line: Western blot of C99 fragment generation in transfected SH-SY5Y cells. It is filed as cell-based, human. Conditions: BACE455 SH-SY5Y cells. How it is done:
SH-SY5Y cells for transfection were grown to 80% confluence in Dulbecco's modified Eagle's medium (DMEM) with 10% fetal bovine serum. Transfections were performed using LipofectAmine Plus (Gibco-BRL) with […] per 10*10<6>cells. Three days posttransfection, cells were passaged into medium containing G418 at a concentration of 400 μg/ml. After twenty days growth in selective medium, individual clones were selected and plated into each well of one 96 well plate containing growth medium plus G418. Clones were expanded from the 96 well plate to a 24 well plate and then to a 6 well plate. Clones which had lost initial neuronal-like morphology were not amplified. BACE455 or BACE501 expression in selected clones was assayed by Western Blotting and immunohistochemical analysis using Cterminal-specific antibody.
Cells were harvested 3 days after plating. Cells were washed twice with PBS and lysed in 1 ml CellLytic solution (Sigma) plus protease inhibitors cocktail (Roche Diagnostics) for 15 min. […] Following electrotransfer of the separated polypeptides to PVDF membranes, APP and C99 proteolytic fragment were detected with C-terminal-specific rabbit anti-APP antibody (Serotec, UK) at 1/500 in PBS-Tween 20 0.1%, and the antibody-antigen complexes were visualized using alkaline phosphatase conjugated goat anti-rabbit antibodies (1/5000). […]
Background: A western blot detects proteins with antibodies after separation by electrophoresis.

A further assay addresses T1, BACE455 (Homo sapiens, UniProt P56817, DEL190-235).
T1 construct: full length cDNA of BACE501 and BACE455 in TOPO TA vector were subcloned into pcDNA3; expressed in transfected cells; Triton X100 membrane extract
The assay is described as follows: beta-secretase fluorogenic assay (Substrate V) with membrane extracts of HEK293-BACE455 cells plus protease inhibitors. It counts as biochemical. The conditions noted are these: for inhibition at 100 µM / Percentage of BACE455 inhibition by various inhibitors (mean percentage of cleavage inhibition): BACE455 cell extract; for inhibition at 100 µM / Percentage of BACE455 inhibition by various inhibitors (mean percentage of cleavage inhibition) / effect on substrate cleavage activity of BACE455 extracts (in words): inhibitor 100 μM; for inhibition at 100 µM: read-out: Percentage of BACE455 inhibition by various inhibitors (mean percentage of cleavage inhibition); for BACE455 activity (percentage of activity +−SEM): compared to mock transfected control; for % Inhibition of BACE activity by Inhibitor III: BACE455, 100 μM. How it is done:
(§1) Cells were harvested and centrifuged at 1,500 rpm for 5 minutes to remove the medium. The cell pellets were washed once with PBS. To further compare BACE455 activity with that of BACE501, an in vitro assay was developed based on quenched fluorogenic substrate (Substrate V, Calbiochem) containing the Swedish mutation KM->NL in APP. Sequence of the peptide was: MCA-[…](DNP)-CONH2 (SEQ ID NO: 32), containing the Swedish APP mutation (in boldface), γ-amino-4-methyl coumarin (MCA) as the fluorophore and dinotrophenol (DNP) as the quencher. When cell lysates of BACE455 and BACE501 expressing cells are incubated with the fluorogenic Substrate V, upon cleavage by the protease, the fluorophore is separated from the quenching group, restoring the full fluorescence yield of the donor. (Ermolief et al., Biochemistry 39: 12450-12456 (2000); Ellerby et al. J. Neurosci. 17: 6165-6178 (1997); Capel et al., J Biol. Chem. 277: 5637-43 (2002)).
(§2) Mock transfected HEK293 and HEK293-BACE455 and -BACE501cells were harvested by scraping in ice-cold 20 mM Tris/150 mM NaCl, pH 7.5 plus Complete Protease Inhibitor Cocktail (Roche Diagnostics). Cell were lysed by repeated freeze-thawing and a postnuclear fraction was generated after centrifugation at 500 g for 10 min, Pellets were resuspended in membrane extraction buffer (20 mM MES/1% Triton X100) containing protease inhibitor cocktail and incubated on ice for 30 minutes. The assay was carried out in black 96 well plates (ATGC) in a volume of 200 μl of the membrane preparation diluted in reaction buffer (25 mM MES/25 mM Sodium Acetate/25 mM Tris, pH 4.4) containing 15 μM peptide Substrate V. These components were equilibrated to 37[deg.] C. for various times and the reaction initiated by addition of substrate. Excitation was performed at 320 nm and the reaction kinetics were monitored by measuring the fluorescence emission at 420 nm. To test the effect of pH, lysed cells were resuspended in 25 mM MES/25 mM Sodium Acetate/25 mM Tris adjusted at pH values ranging from 4.4 to 8 and then incubations were performed as above. Controls included purified recombinant human BACE501 protein (R&D Systems), or substrate alone and background fluorescence is subtracted to recorded BACE isoforms activities.
(§3) Protease inhibitors were added to 100 μl reaction buffer (25 mM MES/25 mM Sodium Acetate/25 mM Tris, pH 4.4) at a final concentration of 100 μM. […] Membrane preparations were obtained as in Example 4 and incubated with the inhibitors for 10 min at room temperature. Reaction was then started by adding 100 μl of reaction buffer containing the substrate (15 μM final concentration) and monitored as described in Example 4. For the dose-response experiment of FIG. 3, Inhibitor III was assayed at various concentrations ranging from 100 μM to 100 nM
(§4) Membrane preparations were obtained as in Example 4 and incubated in assay buffer (25 mM MES/25 mM Sodium Acetate/25 mM Tris) adjusted to final pH ranging from 4.4 to 8, in the presence or absence of BACE inhibitor III (100 μM final concentration). Reaction was started by adding 100 μl of reaction buffer (pH ranging from 4.4 to 8) containing the substrate (15 μM final concentration) and monitored as described in Example 4. We determined in these conditions the percentage of inhibition of BACE by Inhibitor III.

Another assay addresses T2, BACE501 (Homo sapiens, UniProt P56817).
T2 construct: full length cDNA of BACE501 and BACE455 in TOPO TA vector were subcloned into pcDNA3; expressed in transfected cells; Triton X100 membrane extract
The assay is described as follows: beta-secretase fluorogenic assay (Substrate V) with membrane extracts of HEK293-BACE501 cells plus protease inhibitors. It is filed as biochemical. The conditions noted are these: for inhibition at 100 µM / Percentage of inhibition by various inhibitors (mean percentage of cleavage inhibition), BACE501: BACE501 cell extract; for inhibition at 100 µM / Percentage of inhibition by various inhibitors (mean percentage of cleavage inhibition), BACE501 / effect on substrate cleavage activity of BACE501 extracts (in words): inhibitor 100 μM; for inhibition at 100 µM: read-out: Percentage of inhibition by various inhibitors (mean percentage of cleavage inhibition), BACE501; for BACE501 activity (percentage of activity +−SEM): compared to mock transfected control; for % Inhibition of BACE activity by Inhibitor III: BACE501, 100 μM. Here is the method: as §1, §2, §3, §4

Assay [2] deals with endogenously expressed APP in SH-SY5Y cells. The assay is described as follows: Aβ1-40 double antibody sandwich ELISA on conditioned medium of transfected SH-SY5Y cells. It counts as cell-based, human. Conditions: Gleevec treatment of BACE455 cells. How it is done: Cells were harvested 3 days after plating and processed for Western Blotting experiments as described above.
Cell culture supernatants harvested 72 hours after plating were analyzed in a standard double antibody isoform-specific Aβ1-40 ELISA (BioSource International) as follows. […] The detecting antibody is specific for Abeta 1-40 and the conjugated secondary antibody is an anti-rabbit IgG conjugated to horseradish peroxydase. Synthetic human Aβ1-40 standard peptides are serially diluted in the supplied sample diluent for the generation of standard curves.
Human Abeta 1-40 standards were added after washing the plate, as well as 100 μl/well of sample, e.g., conditioned medium of transfected cells. The plate was incubated at 4[deg.] C. overnight. The next day, after washing the plate four times, 100 μl/well rabbit detection antibody was added and incubated for 2 hours on an orbital plate shaker at 20 degree C. […] 100 μl/well stop solution was added and absorbance of each well was read at 450 nm within two hours, with a solution of 100 μl each of chromogen and stop solution as the blank. […] The samples with absorbance values falling within the standard curve were extrapolated (by comparison to the values obtained for the A-β40 and A-β42 standard peptides analyzed on the same plate) from the standard curves and expressed in pg/ml culture medium.

Counter-ions that a name gives are not always drawn. Square brackets hold non-standard residues; d marks the D form. Peptide text beside a SMILES is read from it. * marks the point of attachment. Sta = CC(C)C[C@H](N)[C@@H](O)CC(=O)O; Isovaleryl = CC(C)CC(=O)*

T1 sequence (P56817 with tags, fused parts or gaps DEL190-235): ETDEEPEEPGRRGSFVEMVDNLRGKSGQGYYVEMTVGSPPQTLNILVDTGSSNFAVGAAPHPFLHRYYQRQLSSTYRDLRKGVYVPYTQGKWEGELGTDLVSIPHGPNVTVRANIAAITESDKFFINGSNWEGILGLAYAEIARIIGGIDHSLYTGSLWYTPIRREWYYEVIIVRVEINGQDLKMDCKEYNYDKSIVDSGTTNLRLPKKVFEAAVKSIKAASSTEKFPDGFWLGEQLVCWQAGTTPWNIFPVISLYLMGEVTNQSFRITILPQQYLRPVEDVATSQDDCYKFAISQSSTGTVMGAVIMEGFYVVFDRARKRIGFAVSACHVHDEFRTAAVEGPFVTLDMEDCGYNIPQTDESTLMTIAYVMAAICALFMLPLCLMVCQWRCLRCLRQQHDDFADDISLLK
T2 sequence (P56817 46-501): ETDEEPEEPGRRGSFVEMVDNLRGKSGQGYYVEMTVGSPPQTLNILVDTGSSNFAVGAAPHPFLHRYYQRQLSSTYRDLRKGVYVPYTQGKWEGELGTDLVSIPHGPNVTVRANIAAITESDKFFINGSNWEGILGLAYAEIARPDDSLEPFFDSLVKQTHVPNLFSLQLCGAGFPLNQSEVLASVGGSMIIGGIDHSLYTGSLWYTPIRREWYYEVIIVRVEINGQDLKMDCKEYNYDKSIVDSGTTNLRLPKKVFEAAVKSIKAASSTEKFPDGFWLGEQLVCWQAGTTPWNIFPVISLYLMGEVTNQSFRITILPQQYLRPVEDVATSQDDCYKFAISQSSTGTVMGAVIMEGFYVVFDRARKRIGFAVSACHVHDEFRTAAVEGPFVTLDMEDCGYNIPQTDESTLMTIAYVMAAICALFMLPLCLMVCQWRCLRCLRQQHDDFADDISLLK

Turning to `C[C@H]1CCC/C=C/[C@@H]2C[C@H](O)C[C@H]2[C@H](O)/C=C/C(=O)O1` [BFA, brefeldin A], the “generation of C99” value in assay [1] (10 μg/ml during the last 8 hours) was “reduced generation of C99”.
In the case of `CC(C)C[C@H](NC(=O)[C@@H](NC(=O)N[C@@H](Cc1ccccc1)C(=O)O)[C@@H]1CCN=C(N)N1)C(=O)N[C@H](C=O)Cc1ccccc1` [Chymostatin], the inhibition at 100 µM at BACE455 (pH 4.4) turned out to be 25.9%; on BACE501 (pH 4.4) it was 20.4%.
Consider `CC(C)CCNC(=O)[C@H](CC(C)C)NC(=O)[C@H]1O[C@@H]1C(=O)O` [E-64c, E64c], for which the “Percentage of BACE455 inhibition by various inhibitors (mean percentage of cleavage inhibition)” value on BACE455 (pH 4.4) is recorded as 12.23%. Also, the “Percentage of inhibition by various inhibitors (mean percentage of cleavage inhibition), BACE501” value at BACE501 (pH 4.4) is reported as 13.14%.
As to `Cc1ccc(NC(=O)c2ccc(CN3CCN(C)CC3)cc2)cc1Nc1nccc(-c2cccnc2)n1` [Gleevec, imatinib mesylate], the “Aβ1-40 release (in words)” value in assay [2] is “strongly reduced”. For the same compound, the “generation of C99 peptide” value in assay [1] (10 μM for the last 24 hours) is “strongly reduced”.
For the compound `CC(=O)N[C@@H](CC(C)C)C(=O)N[C@@H](CC(C)C)C(=O)N[C@H](C=O)CCCNC(=N)N` [Leupeptin], the results for the inhibition at 100 µM on BACE455 (pH 4.4) and on BACE501 (pH 4.4) were 17.3% and 8.03%, respectively.
`CC(C)CC(=O)N[C@H](C(=O)N[C@H](C(=O)N[C@@H](CC(C)C)[C@@H](O)CC(=O)N[C@@H](C)C(=O)N[C@@H](CC(C)C)[C@@H](O)CC(=O)O)C(C)C)C(C)C` [Pepstatin A] (Isovaleryl-VV[Sta]A[Sta]-OH): the results for the inhibition at 100 µM on BACE455 (pH 4.4) and on BACE501 (pH 4.4) were 14.4% and 13.1%, respectively. In addition, the “effect on substrate cleavage activity of BACE455 extracts (in words)” value at BACE455 is given as “very weakly sensitive”. In addition, the “effect on substrate cleavage activity of BACE501 extracts (in words)” value at BACE501 was “very weakly sensitive”.
For the compound “H-Glu-Val-Asn-Statine-Val-Ala-Glu-Phe-NH2 [Inhibitor III]”, the “BACE455 activity (percentage of activity +−SEM)” value with BACE455 (1 μM inhibitor) is given as 57.52+−9.08%; in the assay with BACE455 (10 μM inhibitor), 36.04+−4.13%. Further, the “% Inhibition of BACE activity by Inhibitor III” value in the assay with BACE455 (pH 4.4) turned out to be 104.16%; with BACE455 (pH 6.0), 15.97%; with BACE455 (pH 8.0) it was 22.10%; with BACE501 (pH 4.4), 117.54%; in the assay with BACE501 (pH 6.0), 13.23%; in the assay with BACE501 (pH 8.0), 17.63%. For the same compound, the “Percentage of BACE455 inhibition by various inhibitors (mean percentage of cleavage inhibition)” value in the assay with BACE455 (pH 4.4) is 104.16%. In the assay with BACE455, the “effect on substrate cleavage activity of BACE455 extracts (in words)” value is given as “completely abolished”. The “BACE501 activity (percentage of activity +−SEM)” value with BACE501 (1 μM inhibitor) was 85.15+−2.93%; with BACE501 (10 μM inhibitor), 57.6+−3.12%. Also, the “Percentage of inhibition by various inhibitors (mean percentage of cleavage inhibition), BACE501” value in the assay with BACE501 (pH 4.4) is recorded as 117.54%. In addition, in the assay with BACE501, the “effect on substrate cleavage activity of BACE501 extracts (in words)” value is listed as “completely abolished”.

As usually defined, the inhibition is the relative decrease from the control value, in per cent.
